# Assay results as given in patent publication US20240076398A1 (VISTERRA, published 2024).
# No end group written: not given here.
# Tests used:
# [1] = molecular target: T1, human C5aR1 (complement component 5a receptor 1) (human, UniProt P21730 1-350, sulfated tyrosines at positions 11 and 14); assay: flow cytometry on human neutrophils, titration 10^-7.5 to 10^-12 M
# T1 construct: on Expi293 cells, C5aR1-U937 cells or human neutrophils in flow cytometry; also called CD88; C5a anaphylatoxin chemotactic receptor 1
# T1 chain: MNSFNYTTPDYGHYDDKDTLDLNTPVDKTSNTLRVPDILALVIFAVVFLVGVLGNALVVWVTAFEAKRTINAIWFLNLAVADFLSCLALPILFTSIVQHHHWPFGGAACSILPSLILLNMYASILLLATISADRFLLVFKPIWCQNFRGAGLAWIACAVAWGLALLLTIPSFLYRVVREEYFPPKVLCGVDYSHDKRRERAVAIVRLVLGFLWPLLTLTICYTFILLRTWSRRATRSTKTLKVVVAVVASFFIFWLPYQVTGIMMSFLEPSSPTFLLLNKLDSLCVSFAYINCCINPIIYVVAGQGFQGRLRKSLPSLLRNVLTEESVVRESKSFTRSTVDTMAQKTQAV
# Experimental: Exemplary anti-C5aR1 antibodies generated as described in Example 1 were tested for binding to human neutrophils. Briefly, cryopreserved human neutrophils were obtained from Asarte Biologics.
# [2] = molecular target: T2, biotinylated cyclic ECL2 peptide of C5aR1 (human, also: biotinylated, position not given here, cyclic, way of cyclisation not given here); assay: BLI, peptide on streptavidin sensor
# T2 peptide: RVVREEYFPPKVLC
# Source text: The epitope mapping was undertaken, using biolayer interferometry, on a series of exemplary anti-C5aR1 antibodies generated as described in Example 1. Briefly, for each antibody, biotinylated peptides representing ECL2, the N-terminus with tyrosine sulfation, and the N-terminus without tyrosine sulfation, were immobilized in a streptavidin biosensor. Subsequently, the biosensor was exposed to […] of antibody to detect antibody binding to the immobilized peptide. The results of the epitope mapping study are shown in Table 4 (“+” indicates binding to the listed peptide; “−” indicates lack of binding to the listed peptide).
Binder,binding result [1],binding result [2]
"antibody 332 (antibody, V domains shown) VH: QVQLQQSDAELVKPGASVKISCKASGYTFTDHSIHWVKQRPEQGLEWIGYISPGNGDIKYDEKFKGKATLTADTSSSTAYMQLNSLTSEDSAVYFCKGPLLLRWRYFYPVDYWGQGTTVTVSS VL: DIVMTQSQKFMSSAVGDRVTITCKASQNVGAAVAWYQQKPGQSPKLLLYSASIRYTGVPDRFTGSGSGTDFTLTISNIQSEDLAHFFCQQYNSFPLTFGGGTKLEIK",binds,no binding (tested: 10 gg/mL (so in the source))
"antibody 335 (antibody, V domains shown) VH: QVQLQQSDAALVKPGASVKISCKASGYTFTDHAIHWVKQRPEQGLEWIGYISPGNGDIKYNEKFKGKATLTADKSSSTAYMQLNSLTSEDSAVYFCKGPLLVRWRYYITMDYWGQGTTVTVSS VL: DIVMTQSQKFMSTTVGDRVSITCKASQNVGAAVVWYQQKPGQSPKLLIYSASYRYTGVPDRFTGSGSGTDFTLTISNMQSEDVADYFCQQYNSFPLTFGGGTKLEIK",binds,no binding (tested: 10 gg/mL (so in the source))
